Measured values taken from paper PMC4677347.

Tests used:
[1] = biological target: human proteasome α7 subunit (human) (UniProt P25788); assay: AUC; sedimentation velocity, mixture of α7 and α6 at 1:4 molar ratio (α7 tetradecamer to α6 monomer), 150 mM potassium phosphate pH 7.4, 25,000 rpm
[2] = biological target: human proteasome α7 subunit (human) (UniProt P25788); assay: AUC; sedimentation velocity, α7 alone, 150 mM potassium phosphate pH 7.4, 25,000 rpm, c(s) analysis in SEDFIT
[3] = biological target: human proteasome α7 subunit (human) (UniProt P25788); assay: native MS; α7 (2 μM tetradecamer) mixed with α6 (0.5, 1, 2, 4 and 8 μM monomer) at pH 7.5, incubated at 20 °C for 1 h, nanoflow ESI under non-denaturing conditions
[4] = biological target: human proteasome α7 subunit (human) (UniProt P25788); assay: native MS; α7 alone, 28 μM monomer, 10 mM ammonium acetate pH 6.8, nanoflow ESI under non-denaturing conditions
[5] = biological target: human proteasome α6 subunit, short isoform (human) (UniProt P25786); assay: native MS; α6 alone at 5, 10 and 20 μM monomer, 150 mM ammonium acetate pH 7.5, nanoflow ESI under non-denaturing conditions
[6] = biological target: human proteasome α6 subunit, short isoform (human) (UniProt P25786); assay: AUC; sedimentation velocity, α6 alone, 150 mM potassium phosphate pH 7.4, 55,000 rpm, c(s) analysis in SEDFIT

Substance | stoichiometry N [1] | stoichiometry N [2] | stoichiometry N [3] | stoichiometry N [4] | stoichiometry N [5] | stoichiometry N [6]
human proteasome α7 subunit (from UniProt P25788 1-255) (natural protein) | 7 | 14 | 7 | 14 |  | 
human proteasome α6 subunit, short isoform (from UniProt P25786 1-263) (natural protein) | 7 α7 per α6 |  | 7 α7 per α6 |  | 2 | 2
